Source: patent publication US20220403025A1 (GAMMADELTA THERAPEUTICS, published 2022)

What follows are binders tested against Vδ1 γδ T cell receptor on skin-derived γδ T cells (human) (assay: cell-based or functional assay).

Binder	T cell degranulation (EC50 µg/ml - 3 donors) [µg/mL]	Killing assay (EC50 µg/ml - 2 or 3 donors) [µg/mL]
1245_P01_G06 (IgG1) (antibody, V domains shown) VH: QVQLVESGGGLVKPGGSLRLSCAASGFTFSDYYMSWIRQAPGKGLEWVSYISSSGSTIYYADSVKGRFTISRDNAKNSLYLQMNSLRAEDTAVYYCARHSWNDAFDVWGQGTLVTVSS VL: not shown	0.001	
1245_P01_E07 (IgG1) (antibody, V domains shown) VH: QVQLVESGGGLVKPGGSLRLSCAASGFTFSDYYMSWIRQAPGKGLEWVSYISSSGSTIYYADSVKGRFTISRDNAKNSLYLQMNSLRAEDTAVYYCARVDYADAFDIWGQGTLVTVSS VL: DIQMTQSPSSLSASVGDRVTIACRAGQSIGTYLNWYQQKPGKAPKLLIYVASSLQSGVPSRFSGSGSGTEFTLTISSLQPEDFATYYCQQSYSTLLTFGRGTKVEIK		0.06
1245_P02_G04 (IgG1, made in HEK) (antibody, V domains shown) VH: QVQLQQSGPGLVKPSQTLSLTCAISGDSVSSKSAAWNWIRQSPSRGLEWLGRTYYRSKWSTDYAASVKSRITINPDTSKNQLSLQLNSVTPEDTAVYYCARTWSGYVDVWGQGTLVTVSS VL: DIQMTQSPPALSASVGDRVTITCRASQDINDWLAWYQHKPGKAPKLLIYDASSLESGVPSRFSGSGSGTEFTLTISSLQPDDFATYYCQQSYSTPQVTFGQGTRLEIK	0.002	0.1
1252_P01_C08 (IgG1) (antibody, V domains shown) VH: EVQLLESGGGLVQPGRSLRLSCAASGFTVSSNYMSWVRQAPGKGLEWVSVIYSGGSTYYADSVKGRFTISRDNSKNTLYLQMNSLRAEDTAVYYCASPIELGAFDIWGQGTLVTVSS VL: SSYELTQPPSVSVAPGKTARITCGGNNIGSQSVHWYQQKPGQAPMLVIYYDSDRPSGIPERFSGSNSGNTATLTISRVEAGDEADYYCQVWDSSSDHVVFGGGTKLTVL		0.02
1139_P01_E04 (IgG1) (antibody, V domains shown) VH: QVQLQQSGPGLVKPSQTLSLTCAISGDSVSSNSAAWNWIRQSPSRGLEWLGRTYYRSKWYNDYAVSVRSRITINPDTSKNQFSLQLNSVTPEDTAVYYCARSWNDAFDIWGQGTTVTVSS VL: DIVMTQSPSTLSASIGDRVTITCRAGQSISTWLAWYQQKPGKAPKLLIYDASSLESGVPLRFSGSGSGTDFTLTISSLQPEDFATYYCQQSYSTPLTFGGGTKVEIK	0.005	
1245_P01_G09 (IgG1) (antibody, V domains shown) VH: QVQLQQSGPGLVKPSQTLSLTCAISGDSVSSNSAAWNWIRQSPSRGLEWLGRTYYGSKWYNEYALSVKSRIIINPDTSKNQFSLQLNSVTPEDTAVYYCARDYYYSMDVWGQGTLVTVSS VL: DIVMTQSPSTLSASIGDRVTITCRAGQSISTWLAWYQQKPGKAPKLLIYDASSLESGVPLRFSGSGSGTEFTLAISSLQPDDFATYYCQQSYSTPVTFGQGTKVEIK	0.001	
